{
  "source": "paper PMC6220978",
  "about": "“Induced conformational changes activate the peptidoglycan synthase PBP1B” (Molecular Microbiology, 2018)",
  "binders": {"B1": {"name": "LpoB (natural protein, E. coli)", "chain": "VGQREPAPVEEVKPAPEQPAEPQQPVPTVPSVPTIPQQPGPIEHEDQTAPPAPHIRHYDWNGAMQPMVSKMLGADGVTAGSVLLVDSVNNRTNGSLNAAEATETLRNALANNGKFTLVSAQQLSMAKQQLGLSPQDSLGTRSKAIGIARNVGAHYVLYSSASGNVNAPTLQMQLMLVQTGEIIWSGKGAVSQQ", "notes": "LpoB, E. coli; also called lipoprotein LpoB; source: E. coli BL21(DE3), purified (HisTrap, Superdex 200), as in Egan et al. 2014"}},
  "conditions_in_all_cases": "both partners purified",
  "key": {"PBP1B P162C/I644C": {"target": "T1, PBP1B P162C/I644C (E. coli, UniProt P02919 46-844, P162C | I644C)", "T1 construct": "PBP1B, E. coli, residues 46-844, made by mutagenesis of pDML924; Disulphide bridge between C162 and C644 (no free thiol groups detected); reduced in the SPR assay with 2 mM TCEP; source: E. coli BL21(DE3), purified (membrane extract, HisTrap, thrombin, HiTrap SP ion exchange)", "T1 sequence (looked up)": "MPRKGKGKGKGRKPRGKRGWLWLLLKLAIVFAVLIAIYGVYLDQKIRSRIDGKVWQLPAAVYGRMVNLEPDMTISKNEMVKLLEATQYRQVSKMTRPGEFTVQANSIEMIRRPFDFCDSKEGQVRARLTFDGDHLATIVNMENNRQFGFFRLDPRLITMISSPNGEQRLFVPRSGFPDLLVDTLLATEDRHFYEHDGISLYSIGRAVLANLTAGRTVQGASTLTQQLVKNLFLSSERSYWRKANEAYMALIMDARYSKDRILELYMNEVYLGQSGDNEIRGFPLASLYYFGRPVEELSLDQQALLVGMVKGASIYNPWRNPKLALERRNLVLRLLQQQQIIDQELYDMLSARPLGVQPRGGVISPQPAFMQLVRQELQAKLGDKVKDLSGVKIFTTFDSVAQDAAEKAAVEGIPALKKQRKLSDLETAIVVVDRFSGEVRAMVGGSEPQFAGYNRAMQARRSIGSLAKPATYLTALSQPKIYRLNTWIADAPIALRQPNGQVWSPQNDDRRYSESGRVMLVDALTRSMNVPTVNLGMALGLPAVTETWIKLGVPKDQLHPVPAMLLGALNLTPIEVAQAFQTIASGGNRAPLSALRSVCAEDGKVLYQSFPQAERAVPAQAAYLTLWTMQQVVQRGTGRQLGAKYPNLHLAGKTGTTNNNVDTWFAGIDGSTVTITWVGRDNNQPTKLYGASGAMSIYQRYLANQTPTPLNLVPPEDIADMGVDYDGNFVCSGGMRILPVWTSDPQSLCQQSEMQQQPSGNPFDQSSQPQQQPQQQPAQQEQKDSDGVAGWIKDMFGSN", "experiment": "SPR; reducing conditions: 2 mM TCEP in the SPR running buffer, immobilised PBP1B versions incubated in it for 30 min before the assay; LpoB injected from 19.5 nM to 10 μM; apparent KD"}, "PBP1B I202F": {"target": "T2, PBP1B I202F (E. coli, UniProt P02919 46-844, I202F)", "T2 construct": "PBP1B, E. coli, residues 46-844, made by mutagenesis of pDML924; Substitution first found in the suppressor screen of Markovski et al. 2016 (LpoB bypass); source: E. coli BL21(DE3), purified (membrane extract, HisTrap, thrombin, HiTrap SP ion exchange)", "T2 sequence (looked up)": "T1 sequence (looked up) with C117P, I157F, C599I", "experiment": "SPR; reducing conditions: 2 mM TCEP in the SPR running buffer, immobilised PBP1B versions incubated in it for 30 min before the assay; LpoB injected from 19.5 nM to 10 μM; apparent KD"}, "PBP1B E341A": {"target": "T3, PBP1B E341A (E. coli, UniProt P02919 46-844, E341A)", "T3 construct": "PBP1B, E. coli, residues 46-844, made by mutagenesis of pDML924; source: E. coli BL21(DE3), purified (membrane extract, HisTrap, thrombin, HiTrap SP ion exchange)", "T3 sequence (looked up)": "T1 sequence (looked up) with C117P, E296A, C599I", "experiment": "SPR; PBP1B versions immobilised to the chip surface; LpoB injected from 19.5 nM to 10 μM; apparent KD by non-linear regression, at least three independent experiments"}},
  "note": "Changes are numbered by the printed parent chain.",
  "data": [
    {"binder": "B1", "values": [
      {"measurement": "Kd", "setting": "PBP1B P162C/I644C", "result": 182, "unit": "nM"},
      {"measurement": "Kd", "setting": "PBP1B I202F", "result": 17, "unit": "nM"},
      {"measurement": "Kd", "setting": "PBP1B E341A", "result": 273, "unit": "nM"}
    ]}
  ]
}
